Read-outs that look alike come from different tables or passages of the source.
Columns and labels:
CCL23_HUMAN = target: T1, CCL23_HUMAN (Homo sapiens, UniProt P55773); test: Biolayer interferometry (BLI) binding
T1 sequence (P55773 22-120): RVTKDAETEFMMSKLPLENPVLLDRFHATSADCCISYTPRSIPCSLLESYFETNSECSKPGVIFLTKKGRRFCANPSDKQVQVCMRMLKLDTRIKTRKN
Method in brief: (§1)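 Binding was measured by biolayer interferometry with the His-tagged tick protein bound to Ni-NTA sensors. A single-concentration screen used chemokine at 300 nM. Chemokines that bound were retested over multiple doses, and Kd was calculated from fitted curves.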

CCL11_HUMAN = CCL11_HUMAN (Homo sapiens, UniProt P51671); test: Biolayer interferometry (BLI) binding
Chain of CCL11_HUMAN (P51671 24-97): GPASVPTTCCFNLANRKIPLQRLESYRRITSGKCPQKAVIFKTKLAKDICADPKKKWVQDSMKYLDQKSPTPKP
Method in brief: as §1

CCL13_HUMAN [1] = target: T2, CCL13_HUMAN (Homo sapiens, UniProt Q99616); test: Biolayer interferometry (BLI) binding
T2 sequence (Q99616 17-98): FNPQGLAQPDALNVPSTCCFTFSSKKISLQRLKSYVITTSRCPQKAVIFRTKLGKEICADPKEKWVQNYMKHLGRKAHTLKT
Method in brief: as §1

CCL18_HUMAN [2] = target: T3, CCL18_HUMAN (Homo sapiens, UniProt P55774); test: Biolayer interferometry (BLI) binding
T3 sequence (P55774 21-89): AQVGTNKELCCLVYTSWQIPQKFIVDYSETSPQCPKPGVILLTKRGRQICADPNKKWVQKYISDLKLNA
Method in brief: as §1

CCL1_HUMAN = target: T4, CCL1_HUMAN (Homo sapiens, UniProt P22362); details: read-out: Kd, CCL1_HUMAN, previously described evasins; data obtained from publications [20-22,32]; cited from earlier work
T4 sequence (P22362 24-96): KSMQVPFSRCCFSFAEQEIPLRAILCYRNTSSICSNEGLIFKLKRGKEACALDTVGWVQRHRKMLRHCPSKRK

CCL2_HUMAN = CCL2_HUMAN (Homo sapiens, UniProt P13500); details: data obtained from publications [20-22,32]; cited from earlier work
Chain of CCL2_HUMAN (P13500 24-99): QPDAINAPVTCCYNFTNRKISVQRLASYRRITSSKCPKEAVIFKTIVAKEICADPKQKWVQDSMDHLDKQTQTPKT

CCL13_HUMAN [3] = target: T2, CCL13_HUMAN; details: data obtained from publications [20-22,32]; cited from earlier work
CCL14_HUMAN = target: T5, CCL14_HUMAN (Homo sapiens, UniProt Q16627); details: read-out: Kd, CCL14_HUMAN, previously described evasins; data obtained from publications [20-22,32]; cited from earlier work
T5 sequence (Q16627 20-93): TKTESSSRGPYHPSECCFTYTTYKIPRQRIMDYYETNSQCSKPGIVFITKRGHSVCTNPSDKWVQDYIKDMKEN

CCL17_HUMAN = target: T6, CCL17_HUMAN (Homo sapiens, UniProt Q92583); details: read-out: Kd, CCL17_HUMAN, previously described evasins; data obtained from publications [20-22,32]; cited from earlier work
T6 sequence (Q92583 24-94): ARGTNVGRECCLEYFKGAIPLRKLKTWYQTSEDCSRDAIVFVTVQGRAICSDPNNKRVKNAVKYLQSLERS

CCL18_HUMAN [4] = target: T3, CCL18_HUMAN; details: read-out: Kd, CCL18_HUMAN, previously described evasins; data obtained from publications [20-22,32]; cited from earlier work
CCL22_HUMAN = target: T7, CCL22_HUMAN (Homo sapiens, UniProt O00626); details: read-out: Kd, CCL22_HUMAN, previously described evasins; data obtained from publications [20-22,32]; cited from earlier work
T7 sequence (O00626 25-93): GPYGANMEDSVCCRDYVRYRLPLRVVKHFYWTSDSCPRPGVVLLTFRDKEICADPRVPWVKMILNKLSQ

B1: P672_RHIPU: tick CKBP, Rhipicephalus pulchellus (protein, listed as Rhipicephalus pulchellus)
chain: VCEVSEQEGVGEDNATEDEDYEDFFKPVTCYFANSTVGPLRPPNCTVVCTNNTAWWNDTKSDGGHCYSEYRPEKRTHSREIYNCTIGVCGNGTCIANHTYADCW
For B1, which Kd (CCL23_HUMAN) is on record?
The Kd was 10 nM.

B2: P1243_AMBAM: tick CKBP, Amblyomma americanum; AAM-02 stated identical (protein, listed as Amblyomma americanum)
chain: RNHTEDNSTEYYDYEEARCACPARHLNNTNGTVLKLLGCHYFCNGTLCTAPDGYPCYNLTAQQVRTLTTYPNTSCAVGVCMKGTCVKNGTMEQCFKTP
For B2, which Kd (CCL11_HUMAN) is on record?
Its Kd is 6.03 nM.

And the Kd (CCL13_HUMAN [1])?
The Kd was 0.788 nM.

And the Kd (CCL18_HUMAN [2])?
The Kd was 0.00501 nM.

B3: EVASIN4: previously described tick CKBP evasin 4, from Rhipicephalus sanguineus (protein, listed as Rhipicephalus sanguineus)
chain: EVPQMTSSSAPDLEEEDDYTAYAPLTCYFTNSTLGLLAPPNCSVLCNSTTTWFNETSPNNASCLLTVDFLTQDAILQENQPYNCSVGHCDNGTCAGPPRHAQCW
What does the source list for B3?
Kd (CCL1_HUMAN): 0.2 nM; Kd, CCL2_HUMAN, previously described evasins (CCL2_HUMAN): No Binding; Kd, CCL13_HUMAN, previously described evasins (CCL13_HUMAN [3]): No Binding; Kd (CCL14_HUMAN): 0.14 nM; Kd (CCL17_HUMAN): 0.61 nM; Kd (CCL18_HUMAN [4]): 0.03 nM; Kd (CCL22_HUMAN): 0.43 nM

Reference: patent US20200247855A1, “THERAPY AND DIAGNOSTICS” (OXFORD UNIVERSITY INNOVATION LIMITED, priority 2017, published 2020)
